According to the nanobody polyreactivity screen of Harvey et al. (2022):

Experiment: yeast display, Sf9 membrane polyspecificity reagent, FACS + sequencing; frameworks hold sequencing errors
In short: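 Polyreactivity labels are assigned by the sorting gate from which each nanobody was recovered. The gates were low and high (top ~1%), set on anti-HA fluorescence for expression and streptavidin fluorescence for reagent binding. Before sorting, galactose-induced (36–48 hours) yeast display cells were stained for 1 hour at 4 °C with 10% biotinylated, detergent-solubilized Sf9 membrane reagent.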
For “QVQLVESGGGLVQAGGSLRLSCAASGSTFQFYAMRWYRQAPGKERDLVAAIRSSDDSTYYADSVKGRFTISRDNAKNTVYLQMKSLKPEDTAVYYCAAVLDFYGVWYDYWGQGTQVTVSS”, the “polyreactivity (PSR sort gate)” value was “high polyreactivity”.
For “QVQLVESGGGLVQAGGSLRLSCAASGSTFQGYSMGWYRPAPGKERELVAAISGSGGNTYYADSVKGRFTISRDNAKNTVYLQMNSLKPEDTAVYYCAAGHVRTDWRYGYWGQGTQVTVSS”, the “polyreactivity (PSR sort gate)” value was “low polyreactivity”.
With “QVQLVESGGGLVQAGGSLRLSCAASGSTFQINAMGWYRQATGTERELGAAIDGGGDTYYADSVKGRFTISRDNAKNTFYLQMNSLKPEDTAVYYCNARSWARKSNGGSRIRYDYWGQGTQVTVSS” the “polyreactivity (PSR sort gate)” value was “low polyreactivity”.
For “QVQLVESGGGLVQAGGSLRLSCAASGSTFQNNAMGWSRQAPGKERELVAGITGGGGNTNYADSVKGRFTISRDNTKNTVYLQMNSRTPEDTAVYYCAADDPWLGVDFGYWGQGTQVTLSS”, the “polyreactivity (PSR sort gate)” value was “low polyreactivity”.
In the case of “QVQLVESGGGLVQAGGSLRLSCAASGSTFQPYAMGWYRQAPGKERELVAAISWSGVSTSYADSVKGRFTISRDNAKNTVYLQMNSLKPEETAVYYPFYEYYYWVQGTQVTVSS”, the “polyreactivity (PSR sort gate)” value is reported as “low polyreactivity”.
For “QVQLVESGGGLVQAGGSLRLSCAASGSTFQRYAMGWYRQAPGKERELVAAITSGGSTYYADSVKGRFTISRDNAKNTVYLQMISLKPEDTAVYYCNAAWFYRYGYWGQGTQVTVSS”, the “polyreactivity (PSR sort gate)” value was “high polyreactivity”.
For “QVQLVESGGGLVQAGGSLRLSCAASGSTFQSNAMGWYRQAPGTEREMVATITRGGGTSYADSVKGRFTISRDNAKNTVYVQMNSLQPEDTAVYYCNARRQRYYTQGRFYYWGQGTQVTVSS”, the “polyreactivity (PSR sort gate)” value was “high polyreactivity”.
In the case of “QVQLVESGGGLVQAGGSLRLSCAASGSTFQSNARGWYRQAPGKERELVASITSSGVSTYYADSVKGRFTISRDNAKNTVYLQMNSLKPEDTAVYYCAASSYDAYDYGFRFDYWGQGTQVTVSS”, the “polyreactivity (PSR sort gate)” value is reported as “low polyreactivity”.
With “QVQLVESGGGLVQAGGSLRLSCAASGSTFQSYAMGWYRQAPGKERELVAAITTTGTRTYYADSVKGRFTISRDNAKNTVYFQMNSLKPEDTAVYSCNAQRLQAHRTSRRYDYWGQGTQVTVSS” the “polyreactivity (PSR sort gate)” value was “high polyreactivity”.
With “QVQLVESGGGLVQAGGSLRLSCAASGSTFQTYAMGWFRQAPGQERELVAAITSGGSTNYADSVKGRFTISRDNAKNTVSLQMNSLKPEDTAVYYCNKKSRRQYDYWGQGTQVTVSS” the “polyreactivity (PSR sort gate)” value was “low polyreactivity”.
For “QVQLVESGGGLVQAGGSLRLSCAASGSTFQVNVMGWYRPAPGKEREFVAGISYSGGSTYYADSVKGRFTISRDNAKNTVYLQMNSLKPDDTAVYYCAAEEDYNIAGSWTYTYDYWGQGTQVTVSS”, the “polyreactivity (PSR sort gate)” value was “low polyreactivity”.
For “QVQLVESGGGLVQAGGSLRLSCAASGSTFQVYAMGWYRQAPGKERELVAAISYRDGNTYYADSVKGRFTISRDNAKNTFYLQMNSLKPEDTAVYYCNAGLYLPSGYRRSNGYESDYWGQGTQVTVSS”, the “polyreactivity (PSR sort gate)” value was “high polyreactivity”.
With “QVQLVESGGGLVQAGGSLRLSCAASGSTFQWNALGWYRQAPGKERELVASITDSGGRTNYADSVKGRFTISRDNAKNTVYLQMNSLKPEDTAVYYCNAAGYRRSTWWYDYWGQGSQVTVSS” the “polyreactivity (PSR sort gate)” value was “high polyreactivity”.
In the case of “QVQLVESGGGLVQAGGSLRLSCAASGSTFQWNAMGWYRQAPGKERELVASITDSGGRTYYADSVKGRFTISRDNAKNTVYLQMNSLKPEDTAVYYCAAVSLWWSDYYFVEYDYWGQGTQVTVSS”, the “polyreactivity (PSR sort gate)” value is reported as “high polyreactivity”.
With “QVQLVESGGGLVQAGGSLRLSCAASGSTFQWYAMGWYRQAPGKERELVAAITKSGGSTYYADSVKGRFTISRDNAKNTVYLQMNSLKPEDTAVYYCAAGFWYYATEYDYWGQGTQVTVSS” the “polyreactivity (PSR sort gate)” value was “low polyreactivity”.
In the case of “QVQLVESGGGLVQAGGSLRLSCAASGSTFQYNAKGWYRQAPGKERELVAAISSGGSTYYADSVKGRFTISRDNAKNTVYLQMNSLKPEDTAVYYCNALSRRQNWAGEVYYWGQGTQVTVSS”, the “polyreactivity (PSR sort gate)” value is reported as “high polyreactivity”.
In the case of “QVQLVESGGGLVQAGGSLRLSCAASGSTFQYYAMGWYREAPGKERELVAAITHSGTRTYYADSVKGRYTISRDNAKNTVYLQMNTLKPEDTAGYYCAARGYGKYDYWGQGTQVTVSS”, the “polyreactivity (PSR sort gate)” value is reported as “high polyreactivity”.
In the case of “QVQLVESGGGLVQAGGSLRLSCAASGSTFQYYAMGWYSQAPGKERELVAAISYGGSRTYYADSVKGRFTISRDNAKNTVYLQMNSLKPEDTAVYYCAKEKYRALAPYYYWGQGTQVTVSS”, the “polyreactivity (PSR sort gate)” value is reported as “high polyreactivity”.
In the case of “QVQLVESGGGLVQAGGSLRLSCAASGSTFRANAMGWYRQAPGKERELVAAIRWRGVGTYYADSVKGRFTISRDNAKNTVYLQMNSLKPEDTAVYYCAARRLGRSGNGSWGQGTQVTVSS”, the “polyreactivity (PSR sort gate)” value is reported as “high polyreactivity”.
For “QVQLVESGGGLVQAGGSLRLSCAASGSTFRDYAMGWYRQAPGKERELVAAITSGGSTNYADSVKGRFTISRDNAKNTVYLQMNSLKPEDTAVYYCNARYAGWYTPWGRQSVYSDDYWGQGTQVTVSS”, the “polyreactivity (PSR sort gate)” value was “low polyreactivity”.
In the case of “QVQLVESGGGLVQAGGSLRLSCAASGSTFRDYDMGWYRQAPGKERELVAAISRSGGRTYYADSVKGRFTISRDNAKNTVYLQMNSLKPEDTAVYYCAARRYTRRANPAYPYEYWGQGTQVTVSS”, the “polyreactivity (PSR sort gate)” value is reported as “high polyreactivity”.
In the case of “QVQLVESGGGLVQAGGSLRLSCAASGSTFRFNAMGWYRQAPGKERELVAVIRWRGGTTYYADSVKGRFTISRDNAKNTVYLQMKSLKPEDTAVYYCNADYWGQGTQVTVSS”, the “polyreactivity (PSR sort gate)” value is reported as “high polyreactivity”.
With “QVQLVESGGGLVQAGGSLRLSCAASGSTFRFYAMGWYRQAPGKERELVATISSSGGTTYYADSVKGRFTISRDNAKNTVYLQMNSLKPEDTAVYYCAKDAFGWGRVYYYRSGYWGQGTQVTVSS” the “polyreactivity (PSR sort gate)” value was “high polyreactivity”.
For “QVQLVESGGGLVQAGGSLRLSCAASGSTFRFYAMGWYRQAPGKERELVAVIRSTGSTYYADSVKGRFTISRDNAKNTVYLQMNSLKPEDTAVYYCAAQNAWWSNGRSYDYWGQGTQVTVSS”, the “polyreactivity (PSR sort gate)” value was “low polyreactivity”.
For “QVQLVESGGGLVQAGGSLRLSCAASGSTFRGNAMGWYRQAPGKERELVAAISSSGGSTNYADSVKGRFTISRDNAKNTVYLQMNSLKPEDTAVYYCAAERYFVWPFLLKYDYWGQGTQVTVSS”, the “polyreactivity (PSR sort gate)” value was “low polyreactivity”.
For “QVQLVESGGGLVQAGGSLRLSCAASGSTFRGNTMGWYRQAPGKERELVAVISWSDGHTYYADSVKGRFSSSRDYAKNTGYLQMNSLKPEDPAVYYCAAPDPFYDLDSWGQGTQVTVSS”, the “polyreactivity (PSR sort gate)” value was “high polyreactivity”.
In the case of “QVQLVESGGGLVQAGGSLRLSCAASGSTFRGYAMGWYRQAPGKERELVAAIRFSGGRTYYADSVKGRFTISRDNAKNTVYLQMNSLKPEDTAVYYCAKDYRPGWTGTDFYYWGQGTQVTVSS”, the “polyreactivity (PSR sort gate)” value is reported as “low polyreactivity”.
For “QVQLVESGGGLVQAGGSLRLSCAASGSTFRGYVMGWYRQAPGQERELVAVINSSGGRTYYADSVKGRFTISRDNAKNTVYLQMNSLKPEDTAVYYCAARVLQYSGYYYWGQGTQVTVSS”, the “polyreactivity (PSR sort gate)” value was “high polyreactivity”.
With “QVQLVESGGGLVQAGGSLRLSCAASGSTFRHYAMGWYRQAPGKERELVAAISSTGGSTYYADSVKGRFTISRDNAKNTVYLQMNSLKPEDTAVYYCAARRLYWGQGTQVTVSS” the “polyreactivity (PSR sort gate)” value was “high polyreactivity”.
For “QVQLVESGGGLVQAGGSLRLSCAASGSTFRHYAMGWYRQQPGKERELVAAISSRGGSTYYADSVKGRFTISRDNAKNTVYLQMNSLKPEDTAVYYCNVVGYLRPSYRHMDYWGQGTQVTVSS”, the “polyreactivity (PSR sort gate)” value was “high polyreactivity”.
In the case of “QVQLVESGGGLVQAGGSLRLSCAASGSTFRIYAMGWYRQQHGKESEFVAAITGGGTHYADSVKGRFTISRDNAKNTVYLQMNRLKPEDTAVYFCAAGYFIRTLSRYRYDYWGQGTQVTVSS”, the “polyreactivity (PSR sort gate)” value is reported as “high polyreactivity”.
In the case of “QVQLVESGGGLVQAGGSLRLSCAASGSTFRKYAMGWYRQAPGKERELVATISRGTSTYYADSVKGRFTISRDNAKNTVYLQMNSLKPEDTAVYYCNAGYYNKRDGGYTYNYWGQGTQVTVSS”, the “polyreactivity (PSR sort gate)” value is reported as “low polyreactivity”.
With “QVQLVESGGGLVQAGGSLRLSCAASGSTFRNNGMGWYRQAPGKERELVAAITKSGGSTYYADSVKGRFTISRDNAKNTVYLQMNSLKPEDTAVYYCAARFWYNTPRVGWRRYNYWGQGTQVTVSS” the “polyreactivity (PSR sort gate)” value was “high polyreactivity”.
For “QVQLVESGGGLVQAGGSLRLSCAASGSTFRNYAMGWYRQAPGKEREFVAAITWSGGRTYYADSVKGRFTISRDNAKNTVYLQMNSLKPEDTAVYYCAARYRRGYDYWGQGTQVTVSS”, the “polyreactivity (PSR sort gate)” value was “high polyreactivity”.
In the case of “QVQLVESGGGLVQAGGSLRLSCAASGSTFRPYAMGWYRQAPGKERELVAAITSTDVNTYYADSVKGRFTISRDNAKNTVYLQMNSLKPEDTAVYYCAAVYLGYYGVSDMEYWGQGTQVTVSS”, the “polyreactivity (PSR sort gate)” value is reported as “high polyreactivity”.
For “QVQLVESGGGLVQAGGSLRLSCAASGSTFRPYSMGWYRQAPGKEREFVAAINYRGGSTNYADSVKGRFTISRDNAKNTVYLQMNSLKPEDTAVYYCAATYYLRLRRPYWQGFNYWGQGTQVTVSS”, the “polyreactivity (PSR sort gate)” value was “high polyreactivity”.
With “QVQLVESGGGLVQAGGSLRLSCAASGSTFRPYTMGWYRQAPGKERELVAAINRRGSSTYYADSVKGRFTISRDNAKNTVYLQMNSLKPEDTAVYYCNAVPGSRYGTYDYWGQGTQVTVSS” the “polyreactivity (PSR sort gate)” value was “high polyreactivity”.
With “QVQLVESGGGLVQAGGSLRLSCAASGSTFRQNAMGWYRQAPGKERELVAAITYRVASTYYADSVKGRFTISRDNAKNTVYLQMNSLKPEDTAVYYCAARFGSGFNYWGQGTQVTVSS” the “polyreactivity (PSR sort gate)” value was “high polyreactivity”.
For “QVQLVESGGGLVQAGGSLRLSCAASGSTFRQYAMGWYRQAPGKERELVAAISSGGRTNYADSVKGRFTISRDNAKNTVYLQMNSLKPEDTAVYYCAADIRRRVPVRGYYYWGQGTQVTVSS”, the “polyreactivity (PSR sort gate)” value was “high polyreactivity”.
With “QVQLVESGGGLVQAGGSLRLSCAASGSTFRRNAMGWYRQAPGKERELLAAISRRGGSTYYADSVKGRFTISRDNAKNTVYLQMNSLKPEDTAVYYCASAVTTYSQGQGVYSWGQGTQVTVSS” the “polyreactivity (PSR sort gate)” value was “high polyreactivity”.
With “QVQLVESGGGLVQAGGSLRLSCAASGSTFRRNAMGWYRQAPGKERELVAAISRSGGSTYYADSVKGRFTISRDNAKNTVYLQMNSLKPEDTAVYYCAADAARTSHWSGDYWGQGTQVTVSS” the “polyreactivity (PSR sort gate)” value was “high polyreactivity”.
